Measured values: US20060134087A1, “ITI-D1 Kunitz domain mutants as hNE inhibitors” (Dyax Corp., priority 1988, published 2006)

Tests used:
[1] = molecular target: T1, hNE (Homo sapiens, UniProt P08246); experiment: hNE inhibition, hydrolysis of fluorogenic substrate (Ki; standard hNE-inhibition assay); type: biochemical; parameters: concentration or dose not given beside the values
T1 sequence (P08246 30-267): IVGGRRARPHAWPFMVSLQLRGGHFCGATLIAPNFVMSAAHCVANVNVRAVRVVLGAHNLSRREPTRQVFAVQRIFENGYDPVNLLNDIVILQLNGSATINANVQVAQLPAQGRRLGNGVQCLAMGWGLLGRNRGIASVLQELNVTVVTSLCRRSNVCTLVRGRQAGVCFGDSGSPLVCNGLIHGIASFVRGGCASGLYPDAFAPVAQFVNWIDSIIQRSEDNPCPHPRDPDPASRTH
Procedure: Inhibition constants for the proteins reacting with hNE (Ki) were determined using RT measurements of hydrolysis of a fluorogenic substrate (N-methoxysuccinyl-Ala-Ala-Pro-Val-7-amino-4-methylcoumarin, Sigma M-9771) by hNE. For these measurements, aliquots of the appropriately diluted inhibitor stocks were added to 2 ml solutions of 0.847 nM hNE in reaction buffer (50 mM Tris-Cl, pH=8.0, 150 mM NaCl, 1 mM CaCl2, 0.25% Triton-X-100) in plastic fluorescence cuvettes. The reactions were incubated at RT for 30 minutes. At the end of the incubation period, the fluorogenic substrate was added at a concentration of 25 μM and the time course for increase in fluorescence at 470 nm (excitation at 380 nm) due to enzymatic substrate cleavage was recorded using a spectrofluorimeter (Perkin-Elmer 650-15) and strip chart recorder. […] Ki is related to Kapparent by Ki=Kapparent×(1/(1+(S0/Km))). The correction is small compared to the possible errors in Kapparent. Rates of enzymatic substrate cleavage were determined from the linear slopes of the recorded increases in fluorescence. The percent residual activity of hNE in the presence of the inhibitor was calculated as the percentage of the rate of fluorescence increase observed in the presence of the inhibitor to that observed when no added inhibitor was present.
We recorded data used to determine Ki for EPI-HNE-2 and EPI-HNE-3 reacting with hNE. Data obtained as described above are recorded as percent residual activity plotted as a function of added inhibitor. Values for Ki and for active inhibitor concentration in the stock are obtained from a least-squares fit program.

[2] = molecular target: T1, hNE; experiment: Storage stability of purified inhibitor stock solutions; type: physicochemical
Procedure: Residual ammonium sulfate was removed from the EPI-HNE-2 preparation by ion exchange chromatography. The solution from the ammonium sulfate precipitation step was applied to a strong cation-exchange column (50 ml bed volume Macroprep 50S) (Bio-Rad Laboratories, Inc, Hercules, Calif.) previously equilibrated with 10 mM NaCitrate, pH=3.5. After loading, the column was washed with 300 ml of 10 mM NaCitrate, pH=3.5. EPI-HNE-2 was then batch-eluted from the column with 300 ml of 50 mM NH4OAc, pH=6.2. Fractions containing EPI-HNE-2 activity were pooled and the resulting solution was lyophilized. The dried protein powder was dissolved in 50 ml dH2O and the solution was passed through a 0.2μ filter (#4192, Gelman Sciences, Ann Arbor, Mich.). The concentration of the active inhibitor in the final stock solution was determined to be 2 mM (13.5 mg/ml).
The lyophilized protein powder was dissolved in 26 ml dH2O and the solution was passed through a 0.2μ filter (#4912, Gelman Sciences, Ann Arbor, Mich.). […] EPI-HNE-3 stored in water solution (without any buffering) deteriorated when kept at 4° C.

[3] = molecular target: T1, hNE; experiment: Kinetic on-rate of inhibitors reacting with hNE (progressive inhibition); type: biochemical; details: for kon: [hNE] = 8.47 × 10^−10 molar; for koff: calculated from koff = KD × kon
Procedure: The kinetic on-rates for the inhibitors reacting with hNE (kon) were determined from measurements of progressive inhibition of substrate hydrolytic activity by hNE following addition of inhibitor. For these experiments, a known concentration of inhibitor was added to a solution of hNE (0.847 nM) and substrate (25 μM) in 2 ml of reaction buffer in a plastic fluorescence cuvette. The change in fluorescence was recorded continuously following addition of the inhibitor. […] The enzymatic rate at selected times following addition of the inhibitor was determined from the slope of the tangent to the fluorescence time course at that time.
The kinetic constant kon for EPI-HNE-2 reacting with hNE was determined as follows. EPI-HNE-2 at 1.3 nM was added to buffer containing 0.867 nM hNE (I:E=1.5:1) at time 0. Measured percent residual activity was recorded as a function of time after addition of inhibitor. A least-squares fit program was used to obtain the value of kon=4.0×10^6 M^−1s^−1.
The kinetic off rate, koff, is calculated from the measured values of Ki and kon as: […] The values from such measurements are included in Table 30. The EPI-HNE proteins are small, high affinity, fast acting inhibitors of hNE. B. Specificity.

[4] = molecular target: T1, hNE; experiment: Temperature stability, residual inhibitory activity for hNE; type: physicochemical; parameters: Residual hNE Inhibitory Activity: unit not given here; details: for Residual hNE Inhibitory Activity: 18 hours, pH 7.0, 1 μM protein; for temperature below which full inhibitory activity is maintained: thirty minutes, 1 μM, phosphate buffer pH=7
Procedure: The stability of EPI-HNE proteins to temperatures in the range 0° C. to 95° C. was assessed by incubating the inhibitors for thirty minutes at various temperatures and determining residual inhibitory activity for hNE. In these experiments, protein concentrations were 1 μM in phosphate buffer at pH=7. As is shown in Table 40, the four inhibitors are quite temperature stable.
Proteins were incubated at the stated temperature for 18 hours in buffer at pH 7.0. In all cases protein concentrations were 1 μM. At the end of the incubation period, aliquots of the reactions were diluted and residual hNE-inhibition activity determined.

## EPI-HNE-3: ITI-D2(3-58) with R15I, I18F, Q19P, L20R; SEQ ID NO 026 (AACNLPIVRGPCIAFFPRWAFDAVKGKCVLFPYGGCQGNGNKFYSEKECREYCGVP; Epi-HNE-3)
[1]; 10. μl of EPI-HNE-3 solution added
  Percent residual hNE activity: 81.6%
[1]; 20. μl of EPI-HNE-3 solution added
  Percent residual hNE activity: 66.9%
[1]; 30. μl of EPI-HNE-3 solution added
  Percent residual hNE activity: 53.4%
[1]; 40. μl of EPI-HNE-3 solution added
  Percent residual hNE activity: 38.0%
[1]; 50. μl of EPI-HNE-3 solution added
  Percent residual hNE activity: 27.6%
[1]; 55. μl of EPI-HNE-3 solution added
  Percent residual hNE activity: 21.5%
[1]; 60. μl of EPI-HNE-3 solution added
  Percent residual hNE activity: 13.0%
[1]; 65. μl of EPI-HNE-3 solution added
  Percent residual hNE activity: 11.0%
[1]; 70. μl of EPI-HNE-3 solution added
  Percent residual hNE activity: 7.9%
[1]; 75. μl of EPI-HNE-3 solution added
  Percent residual hNE activity: 3.8%
[1]; 80. μl of EPI-HNE-3 solution added
  Percent residual hNE activity: 3.3%
[1]; 85. μl of EPI-HNE-3 solution added
  Percent residual hNE activity: 2.1%
[1]; 90. μl of EPI-HNE-3 solution added
  Percent residual hNE activity: 1.8%
[1]; 100. μl of EPI-HNE-3 solution added
  Percent residual hNE activity: 1.6%
[1]; 110. μl of EPI-HNE-3 solution added
  Percent residual hNE activity: 0.8%
[1]; 120. μl of EPI-HNE-3 solution added
  Percent residual hNE activity: 0.7%
[1]; 160. μl of EPI-HNE-3 solution added
  Percent residual hNE activity: 0.6%
[1]; 200. μl of EPI-HNE-3 solution added
  Percent residual hNE activity: 0.2%
[2]; stock solution 250 μM, −70° C., more than six months
  activity after storage: no loss of activity
[2]; water solution without buffering, 4° C., five months
  material active after storage: about 70%
[3]
  kon: 8.0 10^6/M/s
  koff: 50. 10^−6/s
[4]; Temperature 0 ° C.
  Residual hNE Inhibitory Activity: 96
[4]; Temperature 23 ° C.
  Residual hNE Inhibitory Activity: 105
[4]; Temperature 37 ° C.
  Residual hNE Inhibitory Activity: 99
[4]; Temperature 52 ° C.
  Residual hNE Inhibitory Activity: 100
[4]; Temperature 65 ° C.
  Residual hNE Inhibitory Activity: 87
[4]; Temperature 80 ° C.
  Residual hNE Inhibitory Activity: 79
[4]; Temperature 93 ° C.
  Residual hNE Inhibitory Activity: 57
[4]
  temperature below which full inhibitory activity is maintained: below 65 °C

## EPI-HNE-2: EPI-HNE-1 with four additional residues EAEA at the amino terminus, SEQ ID NO 008
[1]; 10. μl of EPI-HNE-2 solution added
  Percent residual hNE activity: 82.9%
[1]; 20. μl of EPI-HNE-2 solution added
  Percent residual hNE activity: 71.8%
[1]; 30. μl of EPI-HNE-2 solution added
  Percent residual hNE activity: 59.5%
[1]; 40. μl of EPI-HNE-2 solution added
  Percent residual hNE activity: 46.2%
[1]; 50. μl of EPI-HNE-2 solution added
  Percent residual hNE activity: 39.2%
[1]; 55. μl of EPI-HNE-2 solution added
  Percent residual hNE activity: 32.2%
[1]; 60. μl of EPI-HNE-2 solution added
  Percent residual hNE activity: 22.5%
[1]; 65. μl of EPI-HNE-2 solution added
  Percent residual hNE activity: 23.5%
[1]; 70. μl of EPI-HNE-2 solution added
  Percent residual hNE activity: 15.0%
[1]; 75. μl of EPI-HNE-2 solution added
  Percent residual hNE activity: 10.4%
[1]; 80. μl of EPI-HNE-2 solution added
  Percent residual hNE activity: 8.6%
[1]; 85. μl of EPI-HNE-2 solution added
  Percent residual hNE activity: 4.8%
[1]; 90. μl of EPI-HNE-2 solution added
  Percent residual hNE activity: 1.4%
[1]; 95. μl of EPI-HNE-2 solution added
  Percent residual hNE activity: 2.0%
[1]; 100. μl of EPI-HNE-2 solution added
  Percent residual hNE activity: 2.5%
[1]; 120. μl of EPI-HNE-2 solution added
  Percent residual hNE activity: 0.2%
[1]; 150. μl of EPI-HNE-2 solution added
  Percent residual hNE activity: 0.2%
[1]; 200. μl of EPI-HNE-2 solution added
  Percent residual hNE activity: 0.04%
[2]; stock solution 2 mM, 4° C. and −70° C., more than 11 months
  activity after storage: no loss in activity
[3]
  kon: 4.0 10^6/M/s
  koff: 20. 10^−6/s
[4]; Temperature 0 ° C.
  Residual hNE Inhibitory Activity: 101
[4]; Temperature 23 ° C.
  Residual hNE Inhibitory Activity: 103
[4]; Temperature 37 ° C.
  Residual hNE Inhibitory Activity: 97
[4]; Temperature 52 ° C.
  Residual hNE Inhibitory Activity: 101
[4]; Temperature 65 ° C.
  Residual hNE Inhibitory Activity: 95
[4]; Temperature 80 ° C.
  Residual hNE Inhibitory Activity: 101
[4]; Temperature 93 ° C.
  Residual hNE Inhibitory Activity: 88
[4]
  temperature below which full inhibitory activity is maintained: below 90 °C
